Legend:
[1] = biological target: B7 antigen (B7/BB-1, B7-1) on the cell surface (human) (UniProt P33681); test: cell-based or functional assay
[2] = biological target: B7 Ig fusion protein (human) [IgG part: P01857]; test: solid phase competition: 125I-B7 Ig binding to immobilized CTLA4 Ig
B7 Ig fusion protein = biological target: T1, B7 Ig fusion protein (human, UniProt P01857-1 99-330 = IgG part, limits assumed, 125I label in the solid phase binding assays); test: FACS, indirect immunostaining of transfected COS cells
T1 construct: domain: hinge, CH2 and CH3 regions; Made as in Linsley et al. 1991; also called B7IgCγ1

inhibition of Th-induced IgM production [1] [%]	IC50 [2] [nM]	binding result (B7 Ig fusion protein)	Molecule
65	22	–	murine monoclonal antibody BB-1 (anti-B7 antigen)
–	–	no binding (tested: 10 µg/ml)	CD7 expressed on transfected COS cells (receptor, UniProt P09564 26-240, looked up, whole, on cells; Control transfectant; also called CD7-transfected COS cells) AQEVQQSPHCTTVPVGASVNITCSTSGGLRGIYLRQLGPQPQDIIYYEDGVVPTTDRRFRGRIDFSGSQDNLTITMHRLQLSDTGTYTCQAITEVNVYGSGTLVLVTEEQSQGWHRCSDAPPRASALPAPPTGSALPDPQTASALPDPPAASALPAALAVISFLLGLGLGVACVLARTQIKKLCSWRDKNSAACVVYEDMSHSRCNTLSSPNQYQ
